According to publication PMC10786891, “Massively parallel profiling of RNA-targeting CRISPR-Cas13d”:
Residue numbers refer to the chain shown, from its start. Names and notes keep the numbering of the source.

T1: EsCas13d, nuclease-dead (Eubacterium siraeum, UniProt B0MS50, R295A;H300A;R849A;H854A)
T1 sequence: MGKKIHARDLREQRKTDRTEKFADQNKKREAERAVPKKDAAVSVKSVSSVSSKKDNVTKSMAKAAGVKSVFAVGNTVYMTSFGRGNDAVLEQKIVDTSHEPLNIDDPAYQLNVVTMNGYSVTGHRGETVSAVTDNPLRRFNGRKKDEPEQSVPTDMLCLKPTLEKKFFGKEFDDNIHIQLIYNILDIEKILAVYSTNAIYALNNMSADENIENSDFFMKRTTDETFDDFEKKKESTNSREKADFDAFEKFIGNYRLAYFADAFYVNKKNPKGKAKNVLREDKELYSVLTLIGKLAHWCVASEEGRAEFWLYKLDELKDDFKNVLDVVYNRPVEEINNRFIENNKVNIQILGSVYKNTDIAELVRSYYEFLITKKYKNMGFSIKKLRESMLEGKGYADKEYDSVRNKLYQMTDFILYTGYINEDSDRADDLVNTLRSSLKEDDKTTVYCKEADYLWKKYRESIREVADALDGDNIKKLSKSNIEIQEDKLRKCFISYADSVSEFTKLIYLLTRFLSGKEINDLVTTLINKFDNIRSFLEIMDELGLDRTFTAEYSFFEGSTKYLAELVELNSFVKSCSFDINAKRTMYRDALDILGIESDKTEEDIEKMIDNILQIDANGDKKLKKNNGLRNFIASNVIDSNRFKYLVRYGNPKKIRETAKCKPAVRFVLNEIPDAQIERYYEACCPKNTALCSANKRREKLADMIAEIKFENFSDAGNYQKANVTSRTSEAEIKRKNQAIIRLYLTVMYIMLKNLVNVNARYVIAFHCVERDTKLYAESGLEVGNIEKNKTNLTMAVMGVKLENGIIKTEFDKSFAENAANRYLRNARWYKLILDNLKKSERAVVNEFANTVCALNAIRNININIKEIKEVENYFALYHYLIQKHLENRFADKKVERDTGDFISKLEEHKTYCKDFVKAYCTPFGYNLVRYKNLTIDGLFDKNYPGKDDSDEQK

B1: target 1 insG 3' of 14,insC 3' of 3 (mixed)
RNA 1: CACCCGUGCAAAAAUGCAGGGGUCUAAAACUGAGCGGAUAACCUCUCUAUGG
RNA 2: GGGAAUGGAUCCACAUCUACGAAUUCGUACCAUAGAGAGGGUUAUCCGCUCCACCGAGAUCGGAAGAGCACACGU
B2: target 1 complement block 6-8 (mixed)
RNA 1: B1 RNA 1
RNA 2: GGGAAUGGAUCCACAUCUACGAAUUCGUACCAUAGAGAGGUUAAGGGCUCACCGAGAUCGGAAGAGCACACGU
B3: target 1 U10C,A14G (mixed)
RNA 1: B1 RNA 1
RNA 2: B2 RNA 2 with A38G, U42C, A44U, G45C, G46C
B4: target 2 MT 5'PFS UCA 3'PFS CAG (mixed)
RNA 1: CACCCGUGCAAAAUUGCAGGGGUCUAAAACCUUCUCCAAAUUGUUUCAUCCU
RNA 2: GGGAAUGGAUCCACAUCUACGAAUUCUCAAGGAUGAAACAAUUUGGAGAAGCAGAGAUCGGAAGAGCACACGU
B5: target 2 MT 5'PFS GCG 3'PFS AUU (mixed)
RNA 1: B4 RNA 1
RNA 2: B4 RNA 2 with U27G, A29G, C52A, A53U, G54U
B6: target 2 MT 5'PFS GCG 3'PFS CUA (mixed)
RNA 1: B4 RNA 1
RNA 2: B4 RNA 2 with U27G, A29G, A53U, G54A
B7: target 2 MT 5'PFS UAG 3'PFS CAU (mixed)
RNA 1: B4 RNA 1
RNA 2: B4 RNA 2 with C28A, A29G, G54U
B8: target 2 MT 5'PFS UAG 3'PFS CAG (mixed)
RNA 1: B4 RNA 1
RNA 2: B4 RNA 2 with C28A, A29G
B9: target 2 MT 5'PFS UCA 3'PFS CAA (mixed)
RNA 1: B4 RNA 1
RNA 2: B4 RNA 2 with G54A
B10: target 2 MT 5'PFS UCA 3'PFS ACU (mixed)
RNA 1: B4 RNA 1
RNA 2: B4 RNA 2 with C52A, A53C, G54U
B11: target 2 MT 5'PFS UGU 3'PFS CUC (mixed)
RNA 1: B4 RNA 1
RNA 2: B4 RNA 2 with C28G, A29U, A53U, G54C
B12: target 2 MT 5'PFS AUU 3'PFS CAG (mixed)
RNA 1: B4 RNA 1
RNA 2: B4 RNA 2 with U27A, C28U, A29U
B13: target 2 MT 5'PFS UCA 3'PFS ACA (mixed)
RNA 1: B4 RNA 1
RNA 2: B4 RNA 2 with C52A, A53C, G54A
B14: target 2 MT 5'PFS UAG 3'PFS CAA (mixed)
RNA 1: B4 RNA 1
RNA 2: B4 RNA 2 with C28A, A29G, G54A
B15: target 2 MT 5'PFS CGG 3'PFS AAA (mixed)
RNA 1: B4 RNA 1
RNA 2: B4 RNA 2 with U27C, C28G, A29G, C52A, G54A
B16: target 2 MT 5'PFS GAA 3'PFS CUU (mixed)
RNA 1: B4 RNA 1
RNA 2: B4 RNA 2 with U27G, C28A, A53U, G54U
B17: target 2 MT 5'PFS UCU 3'PFS UUG (mixed)
RNA 1: B4 RNA 1
RNA 2: B4 RNA 2 with A29U, C52U, A53U
B18: target 2 MT 5'PFS ACC 3'PFS CAU (mixed)
RNA 1: B4 RNA 1
RNA 2: B4 RNA 2 with U27A, A29C, G54U
B19: target 2 MT 5'PFS AAC 3'PFS UUU (mixed)
RNA 1: B4 RNA 1
RNA 2: B4 RNA 2 with U27A, C28A, A29C, C52U, A53U, G54U
B20: target 2 MT 5'PFS CGG 3'PFS AAC (mixed)
RNA 1: B4 RNA 1
RNA 2: B4 RNA 2 with U27C, C28G, A29G, C52A, G54C
B21: target 2 MT 5'PFS CGG 3'PFS AAU (mixed)
RNA 1: B4 RNA 1
RNA 2: B4 RNA 2 with U27C, C28G, A29G, C52A, G54U
B22: target 2 MT 5'PFS CUG 3'PFS CUA (mixed)
RNA 1: B4 RNA 1
RNA 2: B4 RNA 2 with U27C, C28U, A29G, A53U, G54A
B23: target 2 MT 5'PFS UGU 3'PFS CUA (mixed)
RNA 1: B4 RNA 1
RNA 2: B4 RNA 2 with C28G, A29U, A53U, G54A
B24: target 2 MT 5'PFS UCA 3'PFS ACG (mixed)
RNA 1: B4 RNA 1
RNA 2: B4 RNA 2 with C52A, A53C
B25: target 2 MT 5'PFS CUG 3'PFS CUG (mixed)
RNA 1: B4 RNA 1
RNA 2: B4 RNA 2 with U27C, C28U, A29G, A53U
B26: target 2 MT 5'PFS GCA 3'PFS UCA (mixed)
RNA 1: B4 RNA 1
RNA 2: B4 RNA 2 with U27G, C52U, A53C, G54A
B27: target 2 MT 5'PFS UCA 3'PFS ACC (mixed)
RNA 1: B4 RNA 1
RNA 2: B4 RNA 2 with C52A, A53C, G54C
B28: target 2 MT 5'PFS CUG 3'PFS CUC (mixed)
RNA 1: B4 RNA 1
RNA 2: B4 RNA 2 with U27C, C28U, A29G, A53U, G54C
B29: target 2 MT 5'PFS CGG 3'PFS AAG (mixed)
RNA 1: B4 RNA 1
RNA 2: B4 RNA 2 with U27C, C28G, A29G, C52A
B30: target 2 MT 5'PFS CAC 3'PFS UUU (mixed)
RNA 1: B4 RNA 1
RNA 2: B4 RNA 2 with U27C, C28A, A29C, C52U, A53U, G54U
B31: target 2 MT 5'PFS UGU 3'PFS CUU (mixed)
RNA 1: B4 RNA 1
RNA 2: B4 RNA 2 with C28G, A29U, A53U, G54U
B32: target 2 MT 5'PFS AUU 3'PFS UAC (mixed)
RNA 1: B4 RNA 1
RNA 2: B4 RNA 2 with U27A, C28U, A29U, C52U, G54C
B33: target 2 MT 5'PFS CUG 3'PFS CUU (mixed)
RNA 1: B4 RNA 1
RNA 2: B4 RNA 2 with U27C, C28U, A29G, A53U, G54U

What follows are binders tested against T1, EsCas13d, nuclease-dead (assay: crRNA (strand 1, pre-loaded); Mg2+; 40 mM Tris-HCl pH 7.5, 150 mM NaCl, 6 mM MgCl2, 1 mM DTT, 0.1% Tween-20, 0.2 mg/ml BSA; 25 C; 10 min per concentration, then washed). Conditions: tags: His6-TwinStrep-SUMO cleaved; N-terminal SNAP kept (SNAP-Surface 488); label: 3' end held by stalled T7 RNA polymerase.
B1 gave a Kd of 10.5 ± 0.9 nM.
In the case of B2, the Kd is reported as 8.69 ± 0.24 nM.
For B3, the Kd was 34.1 ± 2.8 nM.
B4 was tested, and the Kd was 3.1 ± 0.4 nM.
B5 showed a Kd of 12.6 ± 2 nM.
Binder B6 has a Kd of 14.3 ± 2.7 nM.
B7 showed a Kd of 3.7 ± 0.5 nM.
B8 gave a Kd of 2.68 ± 0.21 nM.
In the case of B9, the Kd is reported as 5.3 ± 1.2 nM.
Binder B10 has a Kd of 7 ± 1.4 nM.
For B11, the Kd was ~50 nM.
B12 gave a Kd of 6.9 ± 1.1 nM.
Work on B13 yielded a Kd of 3.6 ± 0.5 nM.
B14 showed a Kd of 1.92 ± 0.26 nM.
In the case of B15, the Kd is reported as 5.7 ± 0.9 nM.
Binder B16 has a Kd of 15.1 ± 2.7 nM.
B17 showed a Kd of 16.9 ± 2.8 nM.
B18 gave a Kd of 10 ± 4 nM.
With B19 the Kd was 7.1 ± 1.3 nM.
Work on B20 yielded a Kd of 4.2 ± 0.4 nM.
B21 was tested, and the Kd was 4.8 ± 0.7 nM.
B22 showed a Kd of 3.2 ± 0.4 nM.
For B23, the Kd was 12.9 ± 2 nM.
With B24 the Kd was 3.6 ± 0.6 nM.
With B25 the Kd was 2.67 ± 0.23 nM.
With B26 the Kd was 10.9 ± 2.1 nM.
B27 was tested, and the Kd was 13.6 ± 3.1 nM.
In the case of B28, the Kd is reported as 5.7 ± 0.6 nM.
B29 was tested, and the Kd was 4.4 ± 0.5 nM.
Binder B30 has a Kd of 5.2 ± 0.8 nM.
In the case of B31, the Kd is reported as 14.6 ± 2 nM.
B32 was tested, and the Kd was 11.9 ± 2.2 nM.
With B33 the Kd was 3.55 ± 0.34 nM.
